B1: RE1-silencing transcription factor (Homo sapiens), Q13127 (parent)
chain: MATQVMGQSSGGGGLFTSSGNIGMALPNDMYDLHDLSKAELAAPQLIMLANVALTGEVNGSCCDYLVGEERQMAELMPVGDNNFSDSEEGEGLEESADIKGEPHGLENMELRSLELSVVEPQPVFEASGAPDIYSSNKDLPPETPGAEDKGKSSKTKPFRCKPCQYEAESEEQFVHHIRVHSAKKFFVEESAEKQAKARESGSSTAEEGDFSKGPIRCDRCGYNTNRYDHYTAHLKHHTRAGDNERVYKCIICTYTTVSEYHWRKHLRNHFPRKVYTCGKCNYFSDRKNNYVQHVRTHTGERPYKCELCPYSSSQKTHLTRHMRTHSGEKPFKCDQCSYVASNQHEVTRHARQVHNGPKPLNCPHCDYKTADRSNFKKHVELHVNPRQFNCPVCDYAASKKCNLQYHFKSKHPTCPNKTMDVSKVKLKKTKKREADLPDNITNEKTEIEQTKIKGDVAGKKNEKSVKAEKRDVSKEKKPSNNVSVIQVTTRTRKSVTEVKEMDVHTGSNSEKFSKTKKSKRKLEVDSHSLHGPVNDEESSTKKKKKVESKSKNNSQEVPKGDSKVEENKKQNTCMKKSTKKKTLKNKSSKKSSKPPQKEPVEKGSAQMDPPQMGPAPTEAVQKGPVQVEPPPPMEHAQMEGAQIRPAPDEPVQMEVVQEGPAQKELLPPVEPAQMVGAQIVLAHMELPPPMETAQTEVAQMGPAPMEPAQMEVAQVESAPMQVVQKEPVQMELSPPMEVVQKEPVQIELSPPMEVVQKEPVKIELSPPIEVVQKEPVQMELSPPMGVVQKEPAQREPPPPREPPLHMEPISKKPPLRKDKKEKSNMQSERARKEQVLIEVGLVPVKDSWLLKESVSTEDLSPPSPPLPKENLREEASGDQKLLNTGEGNKEAPLQKVGAEEADESLPGLAANINESTHISSSGQNLNTPEGETLNGKHQTDSIVCEMKMDTDQNTRENLTGINSTVEEPVSPMLPPSAVEEREAVSKTALASPPATMAANESQEIDEDEGIHSHEGSDLSDNMSEGSDDSGLHGARPVPQESSRKNAKEALAVKAAKGDFVCIFCDRSFRKGKDYSKHLNRHLVNVYYLEEAAQGQE

Variants of: B1
Settings: with fbw1a_human BTRC

Effect of a mutation on the interaction, disrupting interaction strength:
S1024A
S1030A
S1027A

Reference: IntAct's records for PubMed 18354483
